Values joined by “and” are separate entries in the source; they are usually repeats but may differ in a detail not shown here. Equal entries are not always repeated.
Columns and labels:
[1] = Isoelectric focusing electrophoresis (pI observed); format: physicochemical; details: pH 3 to 10 gel
In short: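 Proteins focused on pH 3–10 polyacrylamide IEF gels, run 100 V 1 h, 200 V 1 h, 500 V 45 min. Low-pI variants (500 ng) detected by western blot with anti-TM2 rabbit antibody and AP-labeled secondary; HALU variants (4 μg) visualized by CBB staining. Observed pI taken from band position.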

fibronectin = fibronectin (Homo sapiens, UniProt P02751); assay: Non-specific binding to fibronectin (fibronectin-immobilized microplate, biotinylated HRP, A450); details: absorbance at 450 nm
Description: The fibronectin-binding of each low-pI TM2 was compared using a microplate to which fibronectin was immobilized. The concentration of fibronectin was adjusted to 50 μg/mL with a fixation solution exclusive for a New ELISA plate, and the fibronectin solution (50 μL) was added to each New ELISA plate (Sumitomo Bakelite), followed by shaking at 37° C. for 4 hours for immobilization. Then, the plate was washed with 0.1% Triton X-100-containing PBS (300 μL) three times and was then dried naturally.
TM2, K26A, K73Q, R104E, K141E, and R104EK141E mutants (50 μL each) were each added to the corresponding well of the plate and left at room temperature for 1 hour. The plate was washed with 300 μL/well of PBST (PBS buffer containing 0.1% Tween 20) three times. Then, biotinylated HRP diluted 5000 times with PBST containing 0.5% BSA was added at 50 μL/well and allowed to react with the mutant at room temperature for 1 hour. After washing with 300 μL/well of PBST three times, 50 μL/well of 1-Step Ultra TMB-ELISA solution was added to each well for color development. After termination of the color development with 50 μL/well of 2M sulfuric acid, absorbance at 450 nm was measured with an Infinite 200 microplate reader.
Non-specific binding of HALU TM2 to fibronectin was also investigated as in paragraph 1-10) of Example 1.

Salmon sperm DNA = assay: Non-specific binding to DNA (membrane-adsorbed DNA, biotinylated HRP, ECL); details: salmon sperm DNA 10 μg to 1 μg on membrane, 25 μg/mL protein
Description: Salmon sperm DNA diluted stepwise from 10 μg to 1 μg with 2×SSC buffer was denatured with an alkali and was adsorbed to Hybond N+membrane (Amersham Biosciences) using Bio-Dot SF (BIO-RAD). After blocking the membrane with 5×Denhardt's solution (0.1% BSA, 0.1% ficoll, 0.1% polyvinylpyrrolidone), the membrane was immersed in 25 μg/mL of low-pI TM2 or the wild-type TM2 at room temperature for 90 minutes. Then, the membrane was washed with a TUBS buffer (TBS buffer containing 0.05% Tween 20) at room temperature for 5 minutes three times. The membrane was blocked with a TBS buffer containing 3% skimmed milk and 0.1% Tween 20 for 1 hour. The membrane was subjected to a reaction with biotinylated horseradise peroxidase (Vector) diluted 5000 times with a TBS buffer containing 3% skimmed milk and 0.1% Tween 20 at room temperature for 1 hour. The membrane was washed with a TBS buffer containing 0.1% Tween 20 again and was then shaken in a solution that is a mixture of reagent 1 and reagent 2 of ECL (Amasham) in the same volumes, followed by detection of the luminol reaction with Las-3000 (FUJIFILM).
The non-specific binding of HALU TM2 to DNA was analyzed by the process in paragraph 1-11) of Example 1.

[2] = Heat stability of protein structure (soluble protein after heating, SDS-PAGE); format: physicochemical; details: for Thermal stability (temp. at which 50% of protein was lost): heated for 20 minutes
Description: 3-8) Heat Stability of HALU TM2 Protein Structure Each of 0.2 μg/μL TM2 mutant solutions (10 μL (2 μg)) was heated at room temperature, 50, 60, 70, 80, 90, or 99° C. for 20 minutes. Then, the solution was centrifuged at 15000 rpm for 10 minutes, and the soluble protein in the supernatant was suspended in the same volume of 2×SDS sample buffer (250 mM Tris-HCl, pH 6.8, 20% 2-mercaptoethanol, 20% SDS, 20% glycerol). The suspension was heated at 95° C. for 10 minutes, followed by SDS-PAGE. The protein bands were detected by CBB staining A standard curve was prepared using a quantitative marker (LMW ELECTROPHORESIS CALIBRATION KIT; Pharmacia Biotech) with Las-3000 (FUJIFILM) to quantify the protein bands.

Sequence of fibronectin (P02751 32-2477, species assumed): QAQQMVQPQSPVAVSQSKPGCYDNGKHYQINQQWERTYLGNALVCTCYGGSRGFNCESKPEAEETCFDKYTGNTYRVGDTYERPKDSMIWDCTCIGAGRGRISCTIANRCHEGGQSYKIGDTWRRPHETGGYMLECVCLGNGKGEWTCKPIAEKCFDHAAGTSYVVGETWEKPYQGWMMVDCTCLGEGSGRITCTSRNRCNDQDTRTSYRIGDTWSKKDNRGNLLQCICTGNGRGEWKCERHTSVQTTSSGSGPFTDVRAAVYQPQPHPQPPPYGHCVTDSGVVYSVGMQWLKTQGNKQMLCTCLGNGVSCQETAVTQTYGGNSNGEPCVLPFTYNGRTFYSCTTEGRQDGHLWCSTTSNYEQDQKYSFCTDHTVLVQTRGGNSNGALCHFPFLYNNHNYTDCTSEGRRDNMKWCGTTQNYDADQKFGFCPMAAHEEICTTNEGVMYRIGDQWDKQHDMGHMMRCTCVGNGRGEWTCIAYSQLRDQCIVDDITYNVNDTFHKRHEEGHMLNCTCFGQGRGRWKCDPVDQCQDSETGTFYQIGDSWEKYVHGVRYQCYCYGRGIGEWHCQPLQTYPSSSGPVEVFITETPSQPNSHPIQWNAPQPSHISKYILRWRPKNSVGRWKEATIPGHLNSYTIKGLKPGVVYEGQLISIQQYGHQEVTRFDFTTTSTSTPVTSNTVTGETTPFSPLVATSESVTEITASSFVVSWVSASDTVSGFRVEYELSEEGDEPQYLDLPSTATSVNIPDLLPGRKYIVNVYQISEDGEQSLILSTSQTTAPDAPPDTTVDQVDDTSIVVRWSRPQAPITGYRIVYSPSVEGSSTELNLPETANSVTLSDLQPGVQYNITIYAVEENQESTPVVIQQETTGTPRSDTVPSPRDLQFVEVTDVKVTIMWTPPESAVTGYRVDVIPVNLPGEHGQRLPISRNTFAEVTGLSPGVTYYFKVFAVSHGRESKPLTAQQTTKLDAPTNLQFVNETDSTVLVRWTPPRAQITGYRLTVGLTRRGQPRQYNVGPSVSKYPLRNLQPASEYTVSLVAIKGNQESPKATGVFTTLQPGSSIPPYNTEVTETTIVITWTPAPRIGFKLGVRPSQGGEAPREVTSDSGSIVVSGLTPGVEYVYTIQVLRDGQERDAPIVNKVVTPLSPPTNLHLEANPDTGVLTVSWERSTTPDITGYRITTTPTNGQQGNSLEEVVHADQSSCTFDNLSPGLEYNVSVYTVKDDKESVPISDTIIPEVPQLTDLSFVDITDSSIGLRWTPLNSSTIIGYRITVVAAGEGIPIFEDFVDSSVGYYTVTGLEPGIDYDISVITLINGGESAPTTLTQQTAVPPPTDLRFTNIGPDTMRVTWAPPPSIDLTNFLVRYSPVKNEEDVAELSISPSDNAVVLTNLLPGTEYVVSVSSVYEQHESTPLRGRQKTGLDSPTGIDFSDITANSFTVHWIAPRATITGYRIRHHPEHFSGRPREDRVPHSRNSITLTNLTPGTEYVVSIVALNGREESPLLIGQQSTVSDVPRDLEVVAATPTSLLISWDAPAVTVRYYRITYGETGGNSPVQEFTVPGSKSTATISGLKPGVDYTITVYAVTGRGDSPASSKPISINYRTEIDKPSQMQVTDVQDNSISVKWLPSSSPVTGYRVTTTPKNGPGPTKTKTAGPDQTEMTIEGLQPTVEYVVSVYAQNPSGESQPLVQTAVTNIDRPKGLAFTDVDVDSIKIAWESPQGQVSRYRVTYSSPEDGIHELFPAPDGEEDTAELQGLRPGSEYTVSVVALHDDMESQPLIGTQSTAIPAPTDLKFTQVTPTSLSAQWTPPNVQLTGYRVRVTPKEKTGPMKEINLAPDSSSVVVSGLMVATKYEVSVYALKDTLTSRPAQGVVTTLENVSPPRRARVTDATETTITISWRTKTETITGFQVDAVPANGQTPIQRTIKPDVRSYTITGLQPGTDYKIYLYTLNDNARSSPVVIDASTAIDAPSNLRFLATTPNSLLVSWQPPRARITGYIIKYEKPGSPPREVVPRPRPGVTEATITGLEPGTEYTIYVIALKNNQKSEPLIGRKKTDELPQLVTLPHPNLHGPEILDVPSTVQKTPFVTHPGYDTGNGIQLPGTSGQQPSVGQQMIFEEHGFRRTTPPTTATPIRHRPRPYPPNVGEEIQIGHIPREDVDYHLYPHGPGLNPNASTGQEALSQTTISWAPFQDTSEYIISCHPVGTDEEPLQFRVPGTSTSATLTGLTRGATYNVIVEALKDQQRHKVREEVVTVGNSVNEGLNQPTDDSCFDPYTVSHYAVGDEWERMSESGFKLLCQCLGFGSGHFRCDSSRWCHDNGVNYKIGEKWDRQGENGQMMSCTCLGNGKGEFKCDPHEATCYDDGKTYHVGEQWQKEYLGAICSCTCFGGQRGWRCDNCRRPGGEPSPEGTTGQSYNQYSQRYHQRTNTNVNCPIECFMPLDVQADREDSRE

B1: TM2: wild type tamavidin 2, biotin-binding protein from Pleurotus cornucopiae, amino acid sequence SEQ ID NO: 2 (protein, listed as Pleurotus cornucopiae)
chain: MSDVQSSLTGTWYNELNSKMELTANKDGTLTGKYLSKVGDVYVPYPLSGRYNLQPPAGQGVALGWAVSWENSKIHSATTWSGQFFSESSPVILTQWLLSSSTARGDVWESTLVGNDSFTKTAPTEQQIAHAQLHCRAPRLK
Question: What does the source list for B1?
Answer: pI observed [1]: 8.5 to 8.8; pI observed ([1]; listed as TM2WT): 8.5 to 8.8; pI observed ([1]; listed as wild type TM2): 8.2 to 8.6 and 8.5 to 8.8; Binding of fibronectin (A450) (fibronectin; listed as wild type TM2): 1.3 to 1.4; Non-specific binding of DNA (Salmon sperm DNA): weakly bound; Non-specific binding of DNA (Salmon sperm DNA; listed as wild type TM2): weakly bound; Thermal stability (temp. at which 50% of protein was lost) [2]: 87.5 °C; Thermal stability (temp. at which 50% of protein was lost) ([2]; listed as TM2WT): 86 °C

B2: TM2 D40NR104EK141E: TM2 mutant having mutation of D40N and R104EK141E; SEQ ID NO: 24 (protein)
chain: MSDVQSSLTGTWYNELNSKMELTANKDGTLTGKYLSKVGNVYVPYPLSGRYNLQPPAGQGVALGWAVSWENSKIHSATTWSGQFFSESSPVILTQWLLSSSTAEGDVWESTLVGNDSFTKTAPTEQQIAHAQLHCRAPRLE
modifications: Synthetic TM2 D40NR104EK141E
Question: Which results are given for B2?
Answer: pI observed [1]: 7.3 to 7.5; Binding of fibronectin (A450) (fibronectin): extremely low; Binding of fibronectin (A450) (fibronectin; listed as D40NR104EK141E): 0.12; Non-specific binding of DNA (Salmon sperm DNA): lower than the detection limit; protein remained after heating ([2]; heated at 99° C. for 20 minutes): 78%; Thermal stability (temp. at which 50% of protein was lost) [2]: 99 °C or

From patent US8304236B2, “Modified biotin-binding protein” (Japan Tobacco Inc., priority 2008, dated 2012)
